These results are taken from patent US20110243899A1 (NATIONAL UNIVERSITY CORPORATION CHIBA UNIVERSITY, published 2011).

The target of test [1] is Myc-tagged Frz8CRD (Frz8CRD-Myc), cysteine-rich domain of Frizzled 8 (Mus musculus (Mouse)) (UniProt Q61091). Nature of the test: liquid-phase binding assay with immunoprecipitated Frz8CRD-Myc, Scatchard plot.
In test [2] the target is T1, Myc-tagged Frz8CRD (Frz8CRD-Myc), cysteine-rich domain of Frizzled 8 (UniProt Q61091 28-151).
T1 chain: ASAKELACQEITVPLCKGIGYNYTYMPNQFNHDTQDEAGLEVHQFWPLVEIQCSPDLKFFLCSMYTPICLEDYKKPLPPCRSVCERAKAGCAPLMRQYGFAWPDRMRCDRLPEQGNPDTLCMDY
As to the kind of experiment: radioligand saturation binding (Scatchard).

For test [3], the target named is T2, Myc-tagged LRP6N (LRP6N-Myc), extracellular portion of LRP6 (UniProt O75581 20-1370).
T2 chain: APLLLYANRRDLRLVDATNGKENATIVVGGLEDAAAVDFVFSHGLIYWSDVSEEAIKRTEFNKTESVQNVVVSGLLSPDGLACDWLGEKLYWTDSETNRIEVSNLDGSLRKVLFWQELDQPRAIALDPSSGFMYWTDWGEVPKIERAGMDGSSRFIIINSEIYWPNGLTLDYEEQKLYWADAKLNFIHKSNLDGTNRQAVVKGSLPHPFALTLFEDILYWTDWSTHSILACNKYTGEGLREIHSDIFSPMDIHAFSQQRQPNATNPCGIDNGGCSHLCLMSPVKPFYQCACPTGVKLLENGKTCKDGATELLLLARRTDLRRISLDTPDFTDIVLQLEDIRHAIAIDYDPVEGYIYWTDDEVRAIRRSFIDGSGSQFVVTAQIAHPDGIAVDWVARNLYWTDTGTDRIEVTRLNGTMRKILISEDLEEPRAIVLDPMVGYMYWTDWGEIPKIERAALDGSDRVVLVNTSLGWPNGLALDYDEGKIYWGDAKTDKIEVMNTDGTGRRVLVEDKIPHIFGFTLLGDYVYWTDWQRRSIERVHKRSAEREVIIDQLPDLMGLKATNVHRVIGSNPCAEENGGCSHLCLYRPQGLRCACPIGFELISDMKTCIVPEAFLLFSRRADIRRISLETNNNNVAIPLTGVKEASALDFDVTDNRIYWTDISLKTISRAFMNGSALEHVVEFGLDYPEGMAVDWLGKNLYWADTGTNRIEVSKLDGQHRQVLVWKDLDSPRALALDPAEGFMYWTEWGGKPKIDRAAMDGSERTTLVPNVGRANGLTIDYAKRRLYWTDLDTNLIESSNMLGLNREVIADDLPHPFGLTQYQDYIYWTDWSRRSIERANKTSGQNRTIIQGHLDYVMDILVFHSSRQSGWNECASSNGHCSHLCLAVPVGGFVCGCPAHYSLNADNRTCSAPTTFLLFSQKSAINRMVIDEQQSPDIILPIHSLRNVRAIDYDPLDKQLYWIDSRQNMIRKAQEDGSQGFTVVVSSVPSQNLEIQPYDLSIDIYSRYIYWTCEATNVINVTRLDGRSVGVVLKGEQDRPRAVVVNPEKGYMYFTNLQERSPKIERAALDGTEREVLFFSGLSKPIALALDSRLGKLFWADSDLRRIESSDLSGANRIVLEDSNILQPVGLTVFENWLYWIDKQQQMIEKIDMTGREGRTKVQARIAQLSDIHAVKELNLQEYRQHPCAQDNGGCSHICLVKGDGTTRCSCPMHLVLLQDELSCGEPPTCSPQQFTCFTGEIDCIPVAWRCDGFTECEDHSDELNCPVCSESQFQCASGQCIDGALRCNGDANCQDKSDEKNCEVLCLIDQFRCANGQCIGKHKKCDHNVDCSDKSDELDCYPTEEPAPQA
Nature of the test: radioligand saturation binding (Scatchard); Kd2, low-affinity site.

Test [4] addresses T2, Myc-tagged LRP6N (LRP6N-Myc), …. Nature of the test: radioligand saturation binding (Scatchard); Kd1, high-affinity site.
In test [5] the target is T3, Myc-tagged LRP6N (LRP6N-Myc), extracellular portion of LRP6 (UniProt O75581 20-1370, limits assumed).
T3 construct: extracellular domain; Produced in conditioned medium of 293 cells; not shown: Myc tag
T3 sequence (looked up): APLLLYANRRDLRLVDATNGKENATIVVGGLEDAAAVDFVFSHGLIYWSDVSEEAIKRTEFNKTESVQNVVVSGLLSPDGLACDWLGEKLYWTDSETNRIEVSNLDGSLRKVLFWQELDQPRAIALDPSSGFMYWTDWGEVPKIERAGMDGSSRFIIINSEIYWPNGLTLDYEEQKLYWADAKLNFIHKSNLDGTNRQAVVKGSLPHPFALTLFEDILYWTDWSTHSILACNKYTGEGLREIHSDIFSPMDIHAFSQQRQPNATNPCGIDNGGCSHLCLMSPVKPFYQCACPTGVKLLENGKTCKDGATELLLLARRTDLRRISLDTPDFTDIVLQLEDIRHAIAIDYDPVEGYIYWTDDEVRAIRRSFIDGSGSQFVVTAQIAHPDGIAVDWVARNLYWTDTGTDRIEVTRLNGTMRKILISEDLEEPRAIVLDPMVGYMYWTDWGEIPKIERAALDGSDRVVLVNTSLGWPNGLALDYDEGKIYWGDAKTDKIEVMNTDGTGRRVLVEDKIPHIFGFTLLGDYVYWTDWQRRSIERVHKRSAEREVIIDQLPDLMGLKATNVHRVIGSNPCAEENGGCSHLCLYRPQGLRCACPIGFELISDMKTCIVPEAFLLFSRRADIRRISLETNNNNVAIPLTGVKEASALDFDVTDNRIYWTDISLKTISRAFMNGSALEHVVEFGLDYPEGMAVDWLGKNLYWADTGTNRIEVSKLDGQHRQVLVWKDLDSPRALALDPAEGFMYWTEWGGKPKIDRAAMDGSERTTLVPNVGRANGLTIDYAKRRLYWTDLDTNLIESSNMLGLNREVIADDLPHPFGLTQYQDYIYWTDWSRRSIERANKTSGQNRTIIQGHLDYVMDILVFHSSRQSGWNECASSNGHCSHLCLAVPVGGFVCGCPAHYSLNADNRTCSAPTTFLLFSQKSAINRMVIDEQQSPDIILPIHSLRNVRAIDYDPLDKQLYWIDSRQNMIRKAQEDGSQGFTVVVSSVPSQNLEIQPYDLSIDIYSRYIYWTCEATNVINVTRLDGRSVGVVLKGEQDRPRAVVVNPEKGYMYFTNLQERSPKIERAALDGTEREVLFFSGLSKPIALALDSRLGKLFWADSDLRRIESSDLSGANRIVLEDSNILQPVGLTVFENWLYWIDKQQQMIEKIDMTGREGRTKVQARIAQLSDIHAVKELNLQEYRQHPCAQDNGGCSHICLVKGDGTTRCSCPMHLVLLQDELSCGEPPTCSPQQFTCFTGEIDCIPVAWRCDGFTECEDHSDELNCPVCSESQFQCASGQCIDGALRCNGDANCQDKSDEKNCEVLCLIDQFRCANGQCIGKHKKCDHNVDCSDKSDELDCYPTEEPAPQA
Nature of the test: IP with anti-Myc antibody, immunoblot with anti-V5 antibody. The procedure: The interaction was assessed by allowing LRP6N-Myc to react with each V5-tagged IGFBP, and performing immunoprecipitation (IP) with an anti-Myc antibody and subsequent immunoblotting (IB) with an anti-V5 antibody (upper panel), and immunoprecipitation (IP) with an anti-V5 antibody and subsequent immunoblotting (IB) with an anti-V5 antibody (lower panel). In the figure, IGFBP-1, IGFBP-2, IGFBP-3, IGFBP-4, IGFBP-5, and IGFBP-6 are represented by BP1, BP2, BP3, BP4, BP5, and BP6, respectively.
Background: Immunoblotting shows a protein as a band on a membrane.

As to ^125I-labelled IGFBP-4, the Kd (usually the constant that tells how readily two partners part at equilibrium) in test [1] came to 25 nM.

B1: ^125I-labelled IGFBP-4 (other)
chain: DEAIHCPPCSEEKLARCRPPVGCEELVREPGCGCCATCALGLGMPCGVYTPRCGSGLRCYPPRGVEKPLHTLMHGQGVCMELAEIEAIQESLQPSDKDEGDHPNNSFSPCSAHDRRCLQKHFAKIRDRSTSGGKMKVNGAPREDARPVPQGSCQSELHRALERLAASQSRTHEDLYIIPIPNCDRNGNFHPKQCHPALDGQRGKCWCVDRKTGVKLPGGLEPKGELDCHQLADSFRE
On to B1, for which the dissociation constant Kd in test [2] amounted to 2.5 nM; in test [3] it was 6.9 nM; in test [4] it was 0.17 nM.

B2: IGFBP-5 (V5-tagged) (other, mouse, UniProt Q07079 20-271, looked up)
chain: LGSFVHCEPCDEKALSMCPPSPLGCELVKEPGCGCCMTCALAEGQSCGVYTERCAQGLRCLPRQDEEKPLHALLHGRGVCLNEKSYGEQTKIERDSREHEEPTTSEMAEETYSPKVFRPKHTRISELKAEAVKKDRRKKLTQSKFVGGAENTAHPRVIPAPEMRQESEQGPCRRHMEASLQEFKASPRMVPRAVYLPNCDRKGFYKRKQCKPSRGRKRGICWCVDKYGMKLPGMEYVDGDFQCHAFDSSNVE
notes: V5-tagged in the IP/western; not shown: V5 tag
As to B2, in test [5], the binding result was “no binding”.

B3: IGFBP-3 (V5-tagged) (other, mouse, UniProt P47878 28-292, looked up)
chain: GAGAVGAGPVVRCEPCDARALSQCAPPPTAPACTELVREPGCGCCLTCALREGDACGVYTERCGTGLRCQPRPAEQYPLRALLNGRGFCANASAAGSLSTYLPSQPAPGNISESEEEHNAGSVESQVVPSTHRVTDSKFHPLHAKMDVIKKGHARDSQRYKVDYESQSTDTQNFSSESKRETEYGPCRREMEDTLNHLKFLNVLSPRGVHIPNCDKKGFYKKKQCRPSKGRKRGFCWCVDKYGQPLPGYDTKGKDDVHCLSVQSQ
notes: as for B2
As for B3, the binding result in test [5] was “no binding”.
